The source of these data is the DeepSol protein solubility set.

The data set in a line: soluble on expression in E. coli; label from the status in PepcDB or PDB records.
For the sequence “MFGTNGNAGIAVTDPTKQAEIYRALESLKKDESGWKKSVDSFIGPHKPSPEEQFLLLQVIEDYLNKRYHSSSQGDVSVIRTFLLHYTKNSRSSTVDQPAFLTNKMAHIFSLVFAADFPERWSSFFNDLFFSDNINDRKVAFFYLKVLLAIDTEVVNRDIQRSKNESDRNIKIKDAMREICINEIAKSWLTIANALPEDNVIQCLVLDNIASYVDWIELDLVANDYVMPLIISKFQNPATSESATAAVCSLLEKGMPAEKKVGLTLTIMTVLRSNGLLTVNDNNDEEEVTRVGSLVNTLGLVLLDVQNKLCASSILEKEQECCVQEMAGLAEPALVVLNNEDPDLSCMCIDYIRAYCSFLLKFHPNETNFIEKVIRAGLQRYVMNDDMTVGGDGEDEVEFQEFRRELRSMLNVIGLKRPEAIINAVEPWTAEVTSGGSSIPVNRIEALLNVIFHLHEIIPSNMLQSPREGISQRAARLPIVILEGLVLDGRCPAIHVLYFELACRYERLLVLQPQPVVIPHIAAAFLDQRGISISSANVRTRIVYLFCRFVKSHKTVLGPLVSEVITRLAPLLAVSPQADTNQLLSPEDQGYIFEATATLIVFGDLTSEMKSQYVGELASTLAMKFENGLVELNTARARKADEETIQAILQFMSNIIGYSSRMSKAFNNAQSMKACNCIDIYLRLIKLYLETLSPQNAFLLESTRQFAHRLVVSMENELMPYMNGIFDKLALVSTDLDSMHHLLIFCHQTVAKYKKAMLTSGVDLGNVLAIAARASLQEQENNIPAKDDSQRALLYVQRAFVQLLYTVIASDCTPALNTTPGLLDHVLESAARLALSSDQTAQKVALSCLAKISLITPSWSARTLRVALEIPSLSHITPSDAGSTLVVHEVCATLTSLHQSDPDGFTRALRELVPNGFSDQLLSALTNLKGKNLDKQVMNLYSSLRNQSAQ”, the “soluble on expression in E. coli” value was “not soluble”.

“MFHLKTFSDMVESIQITSFHNAELLNFMIDEVKDARTLSKNEIIPTLDELDKVLATFKKGIAMNKTSEYSEKITALDAVRSKAFRNFIGCIQGETHRPEEDHREAARRLFILLKPYNNLNRKSYRNKTELMYKLVEVLRSDKHASDVQTVNVSAWIDKMDNANKAFDQLFDLRDNTEGERLIINNREMRHRIRLHYNRLLEIIEALLVLHADRPLEGFVGRHNERVAKMKALFALRASIGTKSTREKRDVLRSLAIGLGWSLPAGQEDFEFFAGTRILHPTEHRWYCLGKKDNIITLVLYKGKKKQSSSSSSNSSVDLPDLPAPPPSQPDNGSSGGGGEQGGGGSGGL”: the “soluble on expression in E. coli” value was “not soluble”.

With “MFIPKSHTKLIYEYLFNEGVTVAKKDFNAKTHPNIEGVSNLEVIKTLKSLASRELVKEQFAWRHYYWYLTDAGILYLREYLALPAEIVPATIKTKPREIRVPHEDRAPRAAQGEKGDREAYRTEKVTEAGPGGAPVYRAGFGRGAPPPQ”, the “soluble on expression in E. coli” value was “not soluble”.

For the sequence “MFIPQIVPIRDLKNTSAISNLCHKTNEPIFITKNGYGDMVIMSMETYEGNAFFNNLYGNLEEAEMDLQNGRVSGIDEAIEEIKSRYDLEHHHHHH”, the “soluble on expression in E. coli” value was “not soluble”.

In the case of “MFKKLKASLGIGSAKVDTILDEMSVFQGATLKGHVHIKGGDVEQQIDAITIKLNTEMKVEVDDSVSYQTFTIDQLKAVDPFVIQPNEEKQVPFELKLHDETPITAVSALKNQCNVWVETTLDIDFAIDPRDRDYIEVKPLPVASRVIRAIEQAGFTMVKADVEKGFLRGGSFASRSGIYQELEFRNSGFVSSKEIELSFILEGQVMHCLAEIDRSLSFSGDQYRSFTLPINATDAQVAAAVAPTLSL”, the “soluble on expression in E. coli” value was “not soluble”.

In the case of “MFKRLFMVALLAIAPLVHAVDQSNPYRLMDEAAKKTFTRLKNEQPKIKQNPDYLRTIVREELLPFVQIKYAGALVLGSYYKDATPAQREAYFNAFGKYLEQAYGQALALYHGQTYDVAPDQPLGDANIVAIRVTILDPSGRPPVRLDFQWRKNSQTGNWQAYDMIAEGVSMISTKQNEWASILRQKGVDGLTQQLLSAAKQPITLDK”, the “soluble on expression in E. coli” value was “not soluble”.

For “MFLKSLIFVLTFQFSNGNPVEQVHLSLSGKADEMVVTWLTHDPRKFTC”, the “soluble on expression in E. coli” value is “not soluble”.

As for “MFLPVLDSLPSDYDLLRKTYSRMKLEWSTHDLISHCVQEEERLTNEKKEHDLVAGKVICDKKRKQYDECLEAVLGN”, the “soluble on expression in E. coli” value is recorded as “soluble”.

Regarding “MFLQSNEHVGTYYAAVNPELIQPRQALEGDLDCEVLVVGAGFSGLHTALRLVEGGRQVCVIEASRIAWAASGRNGGQALPGWSSDLPPLEADLGYEGARRLWDGMLWAAGEMRELPQRHGFDCDYRVGHLWTAILPRRVGLLYDWQAEANRRWGYEGLRFVAKDELPEWIASERYLAGLYDPHAAHLNPLKLAFGLAAAIERAGGRIHERTRALNYREEGDGYRVRTEHGEIRCAALVLACNAYIDGLDSELSQRMLPVGTYQVATEPLGEERAKSLLPRNCCVTDNQFVLDYFRLTPDHRLLFGGGCTYLGGMPSDIRAATRPYLERVFPQLRGVALEYAWGGHIDCSMRRTPDIGRQGNRYWLQGYSGHGVLPSLAAARAVSDALLGDDETLALYQRLRNPKFPGGQRFAAPLEALGKAYYRLRDLFLEHHHHHH”, the “soluble on expression in E. coli” value was “not soluble”.

In the case of “MFNFANFYQLIAQDTRLQPWLNVLPQQLTDWQNAEHGDFGRWLKALNKIPEGSPDQVDIKNSVTISNDTPFHEGELKKLENLLRTFHPWRKGPYTVHGIHIDTEWRSDWKWDRVLPHISPLKNRSVLDVGCGNGYHMWRMLGEGARLCVGIDPSHLFLIQFEAIRKLMGGDQRAHLLPLGIEQLPKLEAFDTVFSMGVLYHRRSPLDHLIQLKDQLVSGGELVLETLVIEGDENAVLVPTSRYAQMRNVYFFPSAKALKVWLELVGFEDVHIVDENVTSVDEQRTTDWMTHNSLPDYLDPNDPSKTVEGYPAPRRAVLVARKP”, the “soluble on expression in E. coli” value is on record as “not soluble”.

As for “MFNKVIMVGRLTRNVELKYLPSGSAAATIGLATSRRFKKQDGTLGEEVCFIDARLFGRTAEIANQYLSKGSSVLIEGRLTYESWMDQTGKKNSRHTITADSLQFMDKKSDNPQANAMQDSIMHENSNNAYPANH”, the “soluble on expression in E. coli” value is on record as “soluble”.

For “MFPCLCTLKILTFQPKFQKIHDEMKALKAAGKQDEFAKKFVTKDAIFMGPLHEPANVTEAAKFAKSEMMAAVSKGEFNITIDEITPIGDVVIERCTIHAKVASGDKTGWSLCVWVKDGGAWKIRNSCTTFKVVPSA”, the “soluble on expression in E. coli” value was “not soluble”.

Regarding “MFPIKKRKAIKNNNINAAQIPKHIAIIMDGNGRWAKQKKMPRIKGHYEGMQTVRKITRYASDLGVKYLTLYAFSTENWSRPKDEVNYLMKLPGDFLNTFLPELIEKNVKVETIGFIDDLPDHTKKAVLEAKEKTKHNTGLTLVFALNYGGRKEIISAVQLIAERYKSGEISLDEISETHFNEYLFTANMPDPELLIRTSGEERLSNFLIWQCSYSEFVFIDEFWPDFNEESLAQCISIYQNRHRRFGGL”, the “soluble on expression in E. coli” value was “soluble”.

Take “MFPQADEPERDTLPGQEEDPLPTGQEQPSITPIAGTEAQYIDIAEWYDSDSILYITDEGENSLVYIYNLLTGEKKSLFSSDDAVIKVTANSTHSQFAIQTVTQAGDAPVSIIDSQGELLMKLEDFGEDFSIFWSPYEEDKLIAVAYLPDWEQDLYLIDTSDKQVEMLDLDQSFVQWLDERTIVYLDWNGDSEGYYAPLYTFDLETEEVVLLHEEAIATLGFGDHVTLIIERPEQGAEVTTYQFWNGSEQLAEWSVPILRTYSEQWWIPFYDFDLNKRLFYAYKPNRTGDYFEYDGGFSFIAFDVDHGEETVLFESDEHVPFRLSPTGQRALFGPRLETVMDLPTGESNSLIE”: the “soluble on expression in E. coli” value is listed as “not soluble”.

“MFPWIVIHEGNLFDTQKPLKCAILSEFQSMVSESDGPSSSKTGGISSSMTHPLDMLGDTYGIFDLMMDTSSIKPILTEILCSSDHWRRNGRHPVVLSTFPFSAIAREINASCSEALFYEIANVERMIVGDSRHAMNLGDQLAFEIFSTVMMISDLDIFLLGASNLYLSDRRGFNRDLTDVFWSSFISSLLMRNDRNRLFILIKGGLKYVSDLLSEYIVARISMELSDQTIRIRLIYL”: the “soluble on expression in E. coli” value is listed as “soluble”.

Consider “MFQPEKIDPEEATAAIAEVAYIVTVSDYIGNVIRSLYPQASPKLRTIYSVVDSERFLPGNHPKMQKIRNDIRRAHGLENKTVILFAGRLSRNKGVDKLILALPELAKKFKNLALVIVGSNWFSENDITDYVAYVRALAKRMPVPVVTTGFVPPNEIQNWFAAADLFVCTSQWQEPLARVHYEAMAAGLPIVTTARGGNPEVIFANENGLIVENPEDPSDFANKIAQILSDQSLMRRMGEKGRQLAISIYHWERVASELLEVWEQAEKTEQAVVSEEQAAGMTIEPLKEDATEQLNGPTPKADAKEKVHSKKNAAASSNKTKKGKAKKERAISMEDHQQTAKQKEAAAERTELAKSAPAPKQPQTGRHIKPFTIASGNQQTLDASPKTHLNRKLAQAKHDTKHFTIASSH”, for which the “soluble on expression in E. coli” value is reported as “not soluble”.

Consider “MFQRKTLQRRNLKGLNLNLHPDVGNNGQLQEKTETHQGQSRIEGHVMSNINAIQNNSNLFLRRGIKKKLTLDAFGDDQAISKPNTVVIQQPQNEPVLVLSSLSQSPCVSSSSSLSTPCIIDAYSNNFGLSPSSTNSTPSTIQGLSNIATPVENEHSISLPPLEESLSPAAADLKDTLSGTSNGNYIQLQDLVQLGKIGAGNSGTVVKALHVPDSKIVAKKTIPVEQNNSTIINQLVRELSIVKNVKPHENIITFYGAYYNQHINNEIIILMEYSDCGSLDKILSVYKRFVQRGTVSSKKTWFNELTISKIAYGVLNGLDHLYRQYKIIHRDIKPSNVLINSKGQIKLCDFGVSKKLINSIADTFVGTSTYMSPERIQGNVYSIKGDVWSLGLMIIELVTGEFPLGGHNDTPDGILDLLQRIVNEPSPRLPKDRIYSKEMTDFVNRCCIKNERERSSIHELLHHDLIMKYVSPSKDDKFRHWCRKIKSKIKEDKRIKREALDRAKLEKKQSERSTH”, for which the “soluble on expression in E. coli” value is given as “not soluble”.

For the sequence “MFQWLYDVLWLLAPIWIRRYLDKRSGSAPAYRAHRDERFGKPHPNPVTGAVWIHAVSVGETRAAQPLIRELRRRFPDAPLLMTQMTPTGRETAQVLFPDAQCRYLPYDKKTWVRQFLREHRPMFGILMETEIWPNLMKECRRAGVPLFLANARLSEKSLNGYLKVRRLIRPAAASLTGCLAQTEADAARLAKLGAASVQVCGNTKYDLMPSEDMKTLAGQFEKRIGGRPVAVCGSTRVYRGEDEAEKLLAAWQQYRGDALLAVVPRHPEHFQTTFETAKRFGFKVQRRSDGLPVEPDTQVWVGDSMGELYAYYLCADVAFVGGSLVGSGCQNIIEPLSCGVTTIFGFSTYNFSEACRHALASGAAVQVESADAWREAVEKTLSGEGGGMQMQARVDGFIAQHRGAGARIAEAVREAVCGHRGRLEHHHHHH”, the “soluble on expression in E. coli” value is on record as “not soluble”.

As to “MFRQLSELYISTLKEAKERSPPNFDDTPRGLLLALIKDRPTIWNSSARLTKDDVLASFQQCSAILSNMDPGYSIWAVIEKWCWVVESYVRCSVTAPPSEWRYNNTLDYLKQFATTSYPYLGCLSKKRRNELTKLYNDPEINVVMQKTEEIEFPVGIFRDEMLYLSGEDHLMQYDLELRTVGQVVNAKRRGRPSKVDKRSPVDNFYNLTPQSAQFQKLLESNMSSAFSIAFAESELIPDDLGFSPAMYMALIDMIQDKPELWQSNHPQKDNLQAQEQLFEDFGKQLIIKFRDTADISVLEKLTGPYVHLVWERLLEKFKEEDSLETVSKWKYYQVGSAGLSARLAIASPSGSSQSEDSRMAASSPSTAFIGMPTTINGNKSIQTVLDNLIAARSKKEDHAASTTSVLQAPNYSELKQMLEKNNILKVDNENGPPLKRVKQEIESPPGSSRMIVYNDTRKTTNAPISTWVPPREDLTAKVKDETVQSVPQRKAQATAVIKSGFPLEKHLKKQAVPSMIPVTSSSIPQRNGILGLNSMILPPSAIQQALLKKMDVPTTTPSMSSTSSSQAQSSMNGVINGNNTEVEDKWTLLGRMIAMMAREIETRDPMSACELTRDLQQVIFQYNMKTLRPKENNSSSSSQ”, the “soluble on expression in E. coli” value was “not soluble”.
